According to patent US20250367130A1, “THERMORESPONSIVE HYDROGEL CONTAINING METAL-ORGANIC FRAMEWORK PARTICLES FOR NONINVASIVE OCULAR DRUG DELIVERY” (University of Pittsburgh - Of the Commonwealth System of …, priority 2024, published 2025):

Test: Biodistribution study of ovalbumin in rabbit eye tissues and plasma, quantified with ELISA
Assay type: in vivo, New Zealand white rabbits
Method: Biodistribution studies involved healthy New Zealand white rabbits (n=5). The right eye of the rabbits was given a 100 μL of gel with the MOF and PLGA MP particles, independently, and a 50 μL injection of 10 mg/mL ovalbumin solution, for comparative purposes. The left eye was the experimental control. At 1 and 3 days, rabbits were sacrificed, and both eyes were removed. Aqueous humor, vitreous humor, retina-choroid and plasma were collected, and time-dependent concentrations were quantified with ELISA.
After one administration of the topical delivery system, ovalbumin is detectable in the aqueous humor, vitreous humor, retina-choroid, and plasma. […] However, these concentrations are 10^5 lower than what is seen with intravitreal injections after 3 days.

[1] = after one administration of the topical delivery system, rabbit

B1: ovalbumin (protein, UniProt P01012 2-386, looked up)
Ovalbumin: GSIGAASMEFCFDVFKELKVHHANENIFYCPIAIMSALAMVYLGAKDSTRTQINKVVRFDKLPGFGDSIEAQCGTSVNVHSSLRDILNQITKPNDVYSFSLASRLYAEERYPILPEYLQCVKELYRGGLEPINFQTAADQARELINSWVESQTNGIIRNVLQPSSVDSQTAMVLVNAIVFKGLWEKAFKDEDTQAMPFRVTEQESKPVQMMYQIGLFRVASMASEKMKILELPFASGTMSMLVLLPDEVSGLEQLESIINFEKLTEWTSSNVMEERKIKVYLPRMKMEEKYNLTSVLMAMGITDVFSSSANLSGISSAESLKISQAVHAAHAEINEAGREVVGSAEAGVDAASVSEEFRADHPFLFCIKHIATNAVLFFGRCVSP
notes: test agent, acting as a surrogate agent for other anti-VEGF proteins
ovalbumin detection in aqueous humor (after one administration of the topical delivery system (100 μL gel with particles), rabbit): detectable | ovalbumin concentration in retina-choroid relative to vitreous humor [1]: 9 × | ovalbumin concentration in the vitreous humor [1]: ~1 ng/mL | ovalbumin detection in plasma [1]: detectable | ovalbumin detection in retina-choroid [1]: detectable | ovalbumin detection in vitreous humor [1]: detectable | factor by which concentrations are lower than with intravitreal injections (topical delivery system vs intravitreal injection, after 3 days): 10^5
